Experimental data reported in article PMC6408234.

Legend:
[1] = molecular target: 9C-HLA-A2 (NY-ESO-1 157-165 peptide … on HLA-A*02:01 with human β2m); test: biomembrane force probe
[2] = molecular target: C-C-locked R4-MHC (disulfide-bond-locked MHC mutant) (mouse | human); test: biomembrane force probe

| Substance | peak bond lifetime (at ~10 pN force) [1] [s] | fold reduction of the optimal bond lifetime against R4-MHC [2] [fold] |
| --- | --- | --- |
| 1G4 TCR | 1 | – |
| 2C TCR (wild type) | – | 2 |
